Assay results published in US20260258123A1 (MOMENTA PHARMACEUTICALS, published 2026).

How the values were obtained:
[1] = biological target: T1, endogenous human FcRn in cells (human, UniProt P55899 24-365); experiment: flow cytometry on fixed and permeabilised THP-1 cells (endogenous human FcRn), pH 7.4
T1 construct: whole, on cells; Mostly intracellular (endosomal); cells were fixed and permeabilised before staining in most assays. b2m is not mentioned; also called endogenously expressed human FcRn; FcRn in THP-1 cells, HAECs, HUVECs and HVTs

[2] = biological target: T2, recombinant human FcRn (rhFcRn) (human, UniProt P55899 24-297; P16213 21-119); experiment: SPR method of Example 2; differs from the 19.4 pM of Table 3
[3] = biological target: T3, cynomolgus monkey FcRn extracellular domain, GPI-linked, on the surface of HEK 293 cells (cynomolgus monkey, UniProt Q8SPV9 24-297; Q8SPW0 21-119, C-terminal engineered GPI linkage); experiment: competition flow cytometry on HEK 293 cells with cell-surface GPI-linked cynomolgus monkey FcRn at pH 6.0; inhibition of the binding of 66 nM fluorescent probe-labeled non-specific IgG; readout cell bound IgG (MFI)
T3 construct: extracellular domain; b2m is not mentioned for these cells

[4] = biological target: T1, endogenous human FcRn in cells; experiment: cell-based or functional assay
[5] = biological target: T1, endogenous human FcRn in cells; experiment: FcRn occupancy in HUVECs: unlabeled N027 for 1 hour at 37 C, free FcRn stained with VivoTag645-N027, flow cytometry
[6] = biological target: T1, endogenous human FcRn in cells; experiment: FcRn occupancy in HVTs: unlabeled N027 for 1 hour at 37 C, free FcRn stained with VivoTag645-N027, flow cytometry
[7] = biological target: T1, endogenous human FcRn in cells; experiment: FcRn occupancy in HAECs: unlabeled N027 for 1 hour at 37 C, free FcRn stained with VivoTag645-N027, flow cytometry
[8] = biological target: T2, recombinant human FcRn (rhFcRn); experiment: SPR (ProteOn XPR 36), mAb captured on anti-human Fc, rhFcRn as analyte, pH 7.4, 298K

EC50 [1] [nM] | Kd [2] [nM] | EC50 [3] [nM] | intracellular IgG accumulation (VivoTag645-IgG, flow cytometry), ~IC50, HAECs [4] [µg/mL] | intracellular IgG accumulation (VivoTag645-IgG, flow cytometry), ~IC50, HUVECs [4] [µg/mL] | intracellular IgG accumulation (VivoTag645-IgG, flow cytometry), ~IC50, HVTs [4] [µg/mL] | IC50 [5] [µg/mL] | IC50 [6] [µg/mL] | IC50 [7] [µg/mL] | Kd [8] [nM] | koff [8] [s⁻¹] | kon [8] [M⁻¹ s⁻¹] | Binder
3 | 0.0193 | 4.46 | ~0.12 | ~0.15 | ~0.07 | 0.15 | 0.15 | 0.23 | 0.0194 | 2.31e-05 | 1.19e+06 | N027 (antibody, human IgG1, lambda, N297A, IgG1, lambda light chain; Fluorophore-labelled forms served as detection reagent in the occupancy assays; also called anti-FcRn antibody N027; VivoTag645-labeled N027) heavy: not shown light: QSALTQPASVSGSPGQSITISCTGTGSDVGSYNLVSWYQQHPGKAPKLMIYGDSERPSGVSNRFSGSKSGNTASLTISGLQAEDEADYYCSSYAGSGIYVFGTGTKVTVLGQPKAAPSVTLFPPSSEELQANKATLVCLISDFYPGAVTVAWKADSSPVKAGVETTTPSKQSNNKYAASSYLSLTPEQWKSHKSYSCQVTHEGSTVEKTVAPTECS
– | – | 3.51 | – | – | – | – | – | – | 0.0355 | 4.03e-05 | 1.13e+06 | N024 (antibody, human IgG1, lambda, N297A, IgG1, lambda light chain; also called anti-FcRn antibody N024) heavy: not shown light: QSALTQPASVSGSPGQSITISCTGTGSDVGSYNLVSWYQQHPGKAPKLMIYGDSERPSGVSNRFSGSKSGNTASLTISGLQAEDEADYYCSSYAGSGIYVFGTGTKVTVLGQPKAAPSVTLFPPSSEELQANKATLVCLISDFYPGAVTVAWKADSSPVKAGVETTTPSKQSNNKYAASSYLSLTPEQWKSHKSYSCQVTHEGSTVEKTVAPTECS
– | – | 5.16 | – | – | – | – | – | – | 0.0314 | 2.91e-05 | 927000 | N023 (antibody, human IgG1, lambda, N297A, also called anti-FcRn antibody N023) heavy: not shown light: QSALTQPASVSGSPGQSITISCTGTGSDVGSYNLVSWYQQHPGKAPKLMIYGDSERPSGVSNRFSGSKSGNTASLTISGLQAEDEADYYCSSYAGSGIYVFGTGTKVTVLGQPKAAPSVTLFPPSSEELQANKATLVCLISDFYPGAVTVAWKADSSPVKAGVETTTPSKQSNNKYAASSYLSLTPEQWKSHKSYSCQVTHEGSTVEKTVAPTECS
– | – | 2.68 | – | – | – | – | – | – | 0.0365 | 4.44e-05 | 1.22e+06 | N026 (antibody, human IgG1, lambda, N297A, IgG1, lambda light chain; also called anti-FcRn antibody N026) heavy: not shown light: QSALTQPASVSGSPGQSITISCTGTGSDVGSYNLVSWYQQHPGKAPKLMIYGDSERPSGVSNRFSGSKSGNTASLTISGLQAEDEADYYCSSYAGSGIYVFGTGTKVTVLGQPKAAPSVTLFPPSSEELQANKATLVCLISDFYPGAVTVAWKADSSPVKAGVETTTPSKQSNNKYAASSYLSLTPEQWKSHKSYSCQVTHEGSTVEKTVAPTECS
– | – | 4.8 | – | – | – | – | – | – | 0.031 | 4.42e-05 | 1.42e+06 | N022 (antibody, human IgG1, lambda, N297A, also called anti-FcRn antibody N022) heavy: not shown light: QSALTQPASVSGSPGQSITISCTGTGSDVGSYNLVSWYQQHPGKAPKLMIYGDSERPSGVSNRFSGSKSGNTASLTISGLQAEDEADYYCSSYAGSGIYVFGTGTKVTVLGQPKAAPSVTLFPPSSEELQANKATLVCLISDFYPGAVTVAWKADSSPVKAGVETTTPSKQSNNKYAASSYLSLTPEQWKSHKSYSCQVTHEGSTVEKTVAPTECS
